The record followed here is the supplement of paper PMC10567573.

B1: IMPA1 (parent)
chain: FIGEESVAAGEKSILTDNPTWIID
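Further: lentivirally expressed fusions sorted by FACS into six bins by GFP to DsRed ratio, PSI derived from sequencing read proportions per bin multiplied by bin number.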

In the data set the parent is B1. Put plainly: protein stability index of a GFP-peptide fusion (GPS, HEK-293T) (PSI 1-6); higher = more stable. As to conditions: c terminus: a fixed tail appended.
FIGEESVAAGEKPILTDNPTWIID: the protein stability index came out at 2.02.

As for FIGEESVAAGEKHILTDNPTWIID, the protein stability index was 1.96.

FIGEESVAAGEKCILTDNPTWIID: the protein stability index is 2.27.

Consider FIGEESVAAGEKIILTDNPTWIID, for which the protein stability index worked out at 1.99.

As for FIGEESVAAGEKEILTDNPTWIID, the protein stability index is 2.32.

In the case of FIGEESVAAGEKDILTDNPTWIID, the protein stability index came to 2.44.

On to FIGEESVAAGEKMILTDNPTWIID, for which the protein stability index was determined as 1.73.

As for FIGEESVAAGEKYILTDNPTWIID, the protein stability index is 2.

Take FIGEESVAAGEKWILTDNPTWIID: the protein stability index is 2.21.

FIGEESVAAGEKQILTDNPTWIID: the protein stability index turned out to be 1.99.

For FIGEESVAAGEKNILTDNPTWIID, the protein stability index came out at 1.98.

With FIGEESVAAGEKGILTDNPTWIID, the protein stability index was 1.67.

As for FIGEESVAAGEKVILTDNPTWIID, the protein stability index amounted to 2.47.

As to FIGEESVAAGEKTILTDNPTWIID, the protein stability index was 1.89.

Turning to FIGEESVAAGEKFILTDNPTWIID, the protein stability index was found to be 1.97.

Take FIGEESVAAGEKLILTDNPTWIID: the protein stability index stood at 1.95.

With FIGEESVAAGEKRILTDNPTWIID, the protein stability index was found to be 2.4.

On to FIGEESVAAGEKKILTDNPTWIID, for which the protein stability index came out at 2.16.

Consider FIGEESVAAGEKAILTDNPTWIID, for which the protein stability index was determined as 2.06.

In the case of FIGEESVAAGEKSIATDNPTWIID, the protein stability index came out at 2.33.

For FIGEESVAAGEKSICTDNPTWIID, the protein stability index worked out at 2.3.

For FIGEESVAAGEKSIFTDNPTWIID, the protein stability index worked out at 2.06.

With FIGEESVAAGEKSIETDNPTWIID, the protein stability index stood at 2.61.

On to FIGEESVAAGEKSIHTDNPTWIID, for which the protein stability index turned out to be 2.22.

Regarding FIGEESVAAGEKSIGTDNPTWIID, the protein stability index came out at 2.77.

Consider FIGEESVAAGEKSIDTDNPTWIID, for which the protein stability index is 2.83.

On to FIGEESVAAGECSILTDNPTWIID, for which the protein stability index turned out to be 1.93.

In the case of FIGEESVAAGERSILTDNPTWIID, the protein stability index stood at 2.57.

For FIGEESVAAGEGSILTDNPTWIID, the protein stability index came out at 1.91.

For FIGEESVAAGEWSILTDNPTWIID, the protein stability index is 1.97.

On to FIGEESVAAGEVSILTDNPTWIID, for which the protein stability index was found to be 2.11.

As to FIGEESVAAGEPSILTDNPTWIID, the protein stability index is 2.45.

With FIGEESVAAGEISILTDNPTWIID, the protein stability index is 1.61.

FIGEESVAAGEDSILTDNPTWIID: the protein stability index came to 2.27.

Take FIGEESVAAGENSILTDNPTWIID: the protein stability index was determined as 1.89.

On to FIGEESVAAGEFSILTDNPTWIID, for which the protein stability index worked out at 1.56.

Take FIGEESVAAGEASILTDNPTWIID: the protein stability index amounted to 2.25.

On to FIGEESVAAGETSILTDNPTWIID, for which the protein stability index amounted to 2.32.

Consider FIGEESVAAGESSILTDNPTWIID, for which the protein stability index came to 2.12.

Consider FIGEESVAAGELSILTDNPTWIID, for which the protein stability index was found to be 2.25.

As to FIGEESVAAGEQSILTDNPTWIID, the protein stability index came to 1.97.

Consider FIGEESVAAGEYSILTDNPTWIID, for which the protein stability index came to 2.35.

Turning to FIGEESVAAGEHSILTDNPTWIID, the protein stability index amounted to 2.06.

Consider FIGEESVAAGEMSILTDNPTWIID, for which the protein stability index stood at 2.29.

Take FIGEESVAAGEESILTDNPTWIID: the protein stability index was found to be 2.21.

For the variant FIGEESVAAWEKSILTDNPTWIID, the protein stability index was 1.83.

Take FIGEESVAANEKSILTDNPTWIID: the protein stability index is 2.21.

For the variant FIGEESVAAVEKSILTDNPTWIID, the protein stability index is 2.37.

Consider FIGEESVAAYEKSILTDNPTWIID, for which the protein stability index was 1.85.

On to FIGEESVAATEKSILTDNPTWIID, for which the protein stability index was found to be 2.19.

As to FIGEESVAALEKSILTDNPTWIID, the protein stability index turned out to be 2.41.

As to FIGEESVAAREKSILTDNPTWIID, the protein stability index turned out to be 1.97.

With FIGEESVAAMEKSILTDNPTWIID, the protein stability index came out at 2.2.

For the variant FIGEESVAASEKSILTDNPTWIID, the protein stability index came to 2.

With FIGEESVAAPEKSILTDNPTWIID, the protein stability index worked out at 2.15.

As to FIGEESVAAQEKSILTDNPTWIID, the protein stability index was determined as 2.67.

On to FIGEESVAAGYKSILTDNPTWIID, for which the protein stability index was 1.93.

For the variant FIGEESVAAGDKSILTDNPTWIID, the protein stability index turned out to be 2.3.

In the case of FIGEESVAAGIKSILTDNPTWIID, the protein stability index worked out at 2.1.

For FIGEESVAAGKKSILTDNPTWIID, the protein stability index stood at 1.89.

For the variant FIGEESVAAGQKSILTDNPTWIID, the protein stability index amounted to 1.98.

As for FIGEESVAAGTKSILTDNPTWIID, the protein stability index was 2.3.

On to FIGEESVAAGLKSILTDNPTWIID, for which the protein stability index was found to be 1.77.

Take FIGEESVAAGFKSILTDNPTWIID: the protein stability index stood at 2.57.

For FIGEESVAAGNKSILTDNPTWIID, the protein stability index came to 2.04.

FIGEESVAAGVKSILTDNPTWIID: the protein stability index was found to be 1.92.

With FIGEESVAAGWKSILTDNPTWIID, the protein stability index is 1.37.

As to FIGEESVAAGRKSILTDNPTWIID, the protein stability index stood at 1.49.

FIGEESVAAGGKSILTDNPTWIID: the protein stability index came out at 1.96.

Take FIGEESVAAGSKSILTDNPTWIID: the protein stability index is 2.17.

On to FIGEESVAAGAKSILTDNPTWIID, for which the protein stability index was 1.86.

Turning to FIGEESVAAGPKSILTDNPTWIID, the protein stability index amounted to 1.53.

For FIGEESVAAGHKSILTDNPTWIID, the protein stability index turned out to be 1.7.

FIGEESVAAGMKSILTDNPTWIID: the protein stability index was 2.01.

As for FIGEESVAAGCKSILTDNPTWIID, the protein stability index worked out at 1.98.

FIGEESVAAGEKSQLTDNPTWIID: the protein stability index stood at 2.01.

Turning to FIGEESVAAGEKSYLTDNPTWIID, the protein stability index was found to be 1.91.

As for FIGEESVAAGEKSHLTDNPTWIID, the protein stability index worked out at 2.44.

As for FIGEESVAAGEKSKLTDNPTWIID, the protein stability index was 2.54.

Regarding FIGEESVAAGEKSSLTDNPTWIID, the protein stability index came out at 2.32.

In the case of FIGEESVAAGEKSRLTDNPTWIID, the protein stability index amounted to 1.99.

With FIGEESVAAGEKSLLTDNPTWIID, the protein stability index turned out to be 1.78.

For the variant FIGEESVAAGEKSCLTDNPTWIID, the protein stability index was 1.68.

FIGEESVAAGEKSVLTDNPTWIID: the protein stability index stood at 2.23.

Turning to FIGEESVAAGEKSTLTDNPTWIID, the protein stability index came to 2.6.

For the variant FIGEESVAAGEKSFLTDNPTWIID, the protein stability index came out at 1.5.

As for FIGEESVAAGEKSPLTDNPTWIID, the protein stability index was 2.33.

As for FIGEESVAAGEKSNLTDNPTWIID, the protein stability index came out at 2.23.

For the variant FIGEESVAAGEKSMLTDNPTWIID, the protein stability index was 2.15.

As for FIGEESVAAGEKSELTDNPTWIID, the protein stability index came to 2.31.

In the case of FIGEESVAAGEKSALTDNPTWIID, the protein stability index was found to be 2.47.

In the case of FIGEESVAAGEKSDLTDNPTWIID, the protein stability index turned out to be 2.34.

Regarding FIGEESVAAGEKSWLTDNPTWIID, the protein stability index came out at 2.22.

For FIGEESVAAGEKSGLTDNPTWIID, the protein stability index turned out to be 2.38.
